{
  "source": "patent US20160324962A1",
  "about": "“COMPOSITIONS AND METHODS FOR TREATING SARCOMA” (MEDIMMUNE, LLC, priority 2013, published 2016)",
  "key": {"[1]": {"test_system": "KHOS xenograft model", "assay": "Xenograft efficacy study in mice", "format": "in vivo", "conditions": "KHOS xenografts, MEDI-573 alone", "excerpt": "(§1) Although proliferation of SK-ES-1 and SJCRH30 cells was inhibited by MEDI-573 in vitro in the absence of exogenous IGFs, the in vivo growth of these two models was not effected by MEDI-573 treatment.\n(§2) For in vivo efficacy studies, five million sarcoma cells in 50% matrigel were inoculated subcutaneously into each female athymic nude mice. When tumors reach approximately 150-200 mm^3, mice were randomly assigned into groups (10 mice per group). MEDI-573 was administrated intraperitoneally twice per week at indicated doses. The dose regimen for AZD2014 was oral once every day, for rapamycin was intraperitoneal injection every 3 days. Tumor volumes were measured twice weekly with calipers. Tumor growth inhibition was calculated on the last day of study relative to the initial and final mean tumor volume of the control group."}, "[2]": {"test_system": "SJSA-1 (an osteosarcoma model) xenografts", "assay": "Xenograft efficacy study in mice", "format": "in vivo", "conditions": "SJSA-1 xenografts, MEDI-573 alone", "excerpt": "as §1, §2"}, "[3]": {"test_system": "SJCRH30", "assay": "Xenograft efficacy study in mice", "format": "in vivo", "conditions": "SJCRH30 model", "excerpt": "as §1, §2"}, "[4]": {"test_system": "SK-ES-1", "assay": "Xenograft efficacy study in mice", "format": "in vivo", "conditions": "SK-ES-1 model", "excerpt": "as §1, §2"}, "[5]": {"test_system": "IGF-1R phosphorylation", "assay": "pIGF-1R assay in sarcoma cells (MSD)", "format": "cell-based", "protocol": "When exogenous IGF-1 or IGF-2 was added to cells, there was an induction of phosphorylation of IGF-1R and IR-A in all cells examined.\nThe sarcoma lines were cultured overnight in complete medium. The following day, medium containing 0.1% charcoal stripped fetal bovine serum (FBS) was added to the cultures and the cultures incubated overnight. The next day, cells were treated with various treatments for 5 minutes. Media was removed; cells were washed and lysed with 1.0% Triton X lysis buffer with protease and phosphatase inhibitors. Approximately 8-20 μg of total protein was loaded on MSD 96-Well MULTI-SPOT plates and the level of total and phosphorylated IGF-1R, IR-A and IRS-1 protein was determined using the Insulin Signaling Panel (total protein) and Insulin Signaling Panel (phosphoprotein) Whole Cell Lysate kits according to the manufacturers protocol. The level of total and phosphorylated AKT was determined using the Phospho (Ser473)/Total AKT Assay Whole Cell Lysate kit according to manufacturer's standard protocol."}, "[6]": {"assay": "Body weight / tolerability in xenograft mice", "format": "in vivo", "conditions": "MEDI-573 alone", "excerpt": "as §1\nThe combination treatments were tolerated as no significant body weight loss was observed (FIG. 17B)."}, "[7]": {"test_system": "RD-ES cells", "assay": "Activation of caspase-3 and caspase-7", "format": "cell-based", "conditions": "increasing concentrations, 48 hours, compared to isotype control", "protocol": "(§3) To evaluate the basis for the cytotoxic effect of MEDI-573 on RD-ES, TC-71, SJSA-1, and KHOS cells, cells were treated with increasing concentrations of MEDI-573 for 48 hours and analyzed by measuring the activation of caspase-3 and caspase-7. […] (Data not shown.)"}, "[8]": {"test_system": "TC-71 cells", "assay": "Activation of caspase-3 and caspase-7", "format": "cell-based", "conditions": "increasing concentrations, 48 hours, compared to isotype control", "protocol": "as §3"}, "[9]": {"test_system": "SJSA-1 cells", "assay": "Activation of caspase-3 and caspase-7", "format": "cell-based", "conditions": "increasing concentrations, 48 hours, compared to isotype control", "protocol": "as §3"}, "[10]": {"test_system": "KHOS cells", "assay": "Activation of caspase-3 and caspase-7", "format": "cell-based", "conditions": "increasing concentrations, 48 hours", "protocol": "as §3"}},
  "data": [
    {"molecule": "MEDI-573: fully human monoclonal IgG2 lambda antibody that binds IGF-2 with cross reactivity to IGF-1; hybridoma 7.159.2, ATCC PTA-7424 (antibody) heavy: QVQLVQSGAEVKKPGASVKVSCKASGYTFTSYDINWVRQATGQGLEWMGWMNPNSGNTGYAQKFQGRVTMTRNTSISTAYMELSSLRSEDTAVYYCARDPYYYYYGMDVWGQGTTVTVSSASTKGPSVFPLAPCSRSTSESTAALGCLVKDYFPEPVTVSWNSGALTSGVHTFPAVLQSSGLYSLSSVVTVPSSNFGTQTYTCNVDHKPSNTKVDKTVERKCCVECPPCPAPPVAGPSVFLFPPKPKDTLMISRTPEVTCVVVDVSHEDPEVQFNWYVDGVEVHNAKTKPREEQFNSTFRVVSVLTVVHQDWLNGKEYKCKVSNKGLPAPIEKTISKTKGQPREPQVYTLPPSREEMTKNQVSLTCLVKGFYPSDIAVEWESNGQPENNYKTTPPMLDSDGSFFLYSKLTVDKSRWQQGNVFSCSVMHEALHNHYTQKSLSLSPGK light: QSVLTQPPSVSAAPGQKVTISCSGSSSNIENNHVSWYQQLPGTAPKLLIYDNNKRPSGIPDRFSGSKSGTSATLGITGLQTGDEADYYCETWDTSLSAGRVFGGGTKLTVLGQPKAAPSVTLFPPSSEELQANKATLVCLISDFYPGAVTVAWKADSSPVKAGVETTTPSKQSNNKYAASSYLSLTPEQWKSHRSYSCQVTHEGSTVEKTVAPTECS", "values": [
      {"measurement": "response in vivo", "setting": "[1]", "value": "did not respond"},
      {"measurement": "tumor growth inhibition", "setting": "[2]", "value": "Comparable results"},
      {"measurement": "in vivo growth", "setting": "[3]", "value": "not effected"},
      {"measurement": "in vivo growth", "setting": "[4]", "value": "not effected"},
      {"measurement": "autophosphorylation of IGF-1R", "setting": "[5]; RD-ES, TC-71, SK-ES-1, and SJSA-1 cells", "value": "inhibited autophosphorylation"},
      {"measurement": "IGF-1/-2-induced activation of IGF-1R", "setting": "[5]; pretreatment with MEDI-573, exogenous IGF-1 or IGF-2", "value": "inhibited"},
      {"measurement": "body weight", "setting": "[6]", "value": "no loss of body weight was observed"},
      {"measurement": "caspase-3/-7 activities", "setting": "[7]", "value": "increased caspase-3/-7 activities in a dose-dependent manner"},
      {"measurement": "caspase-3/-7 activities", "setting": "[8]", "value": "increased caspase-3/-7 activities in a dose-dependent manner"},
      {"measurement": "caspase-3/-7 activities", "setting": "[9]", "value": "increased caspase-3/-7 activities in a dose-dependent manner"},
      {"measurement": "caspase-3/-7 activities", "setting": "[10]", "value": "No activation of caspase-3/-7 was detected"}
    ]}
  ]
}
